Usually Kd stands for the constant that tells how readily two partners part at equilibrium. Lower therefore signals a tighter complex.

In assay [1] the target is T1, C-reactive protein (human), P02741.
T1 chain: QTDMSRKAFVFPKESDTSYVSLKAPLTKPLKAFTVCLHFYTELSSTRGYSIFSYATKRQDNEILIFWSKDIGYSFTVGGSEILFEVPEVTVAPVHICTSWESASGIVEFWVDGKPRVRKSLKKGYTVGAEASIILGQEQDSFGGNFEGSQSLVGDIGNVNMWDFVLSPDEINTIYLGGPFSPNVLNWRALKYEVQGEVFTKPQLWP
The assay can be described thus: FACS. The note with it: modification not given.

The target is the same in assay [2]. The assay can be described thus: FACS. Particulars: modification not given.

In assay [1], YPPRFQYYRFYYRGP [CRP-10] returned a Kd of 5 nM.

For EWACNDRGFNCQLQR [CRP-1], the Kd is 1.2 nM in assay [1] and 1 nM in assay [2].

On to MIFNSRGFLSLMSSG [CRP-6], for which, in assay [1], the Kd was 8 nM. Take FPIYNQRGFITLASP [CRP-2]: the Kd in assay [1] was determined as 3 nM.

Source of the values: patent publication US20160032279.
